According to FireProtDB (doi:10.1074/jbc.272.30.18686):

Details: Escherichia coli (strain K12); pH 3.2; Thermal; CD; glycine-HCl 10 mM; reversible: yes; whole UniProt chain shown

B1: Ribonuclease HI wild type, P0A7Y4 (protein)
chain: MLKQVEIFTDGSCLGNPGPGGYGAILRYRGREKTFSAGYTRTTNNRMELMAAIVALEALKEHCEVILSTDSQYVRQGITQWIHNWKKRGWKTADKKPVKNVDLWQRLDAALGQHQIKWEWVKGHAGHPENERCDELARAAAMNPTLEDTGYQVEV
In the case of B1, the Tm is reported as 53 °C and the “unfolding enthalpy (van 't Hoff)” value is reported as 99.2 kcal/mol.
